The source of these data is paper PMC3441419, “The Redox-Sensing Regulator Rex Modulates Central Carbon Metabolism, Stress Tolerance Response and Biofilm Formation by Streptococcus mutans”.

In series [1] the target is T1, rRex (Streptococcus mutans UA159?) (UniProt Q8DU91).
T1 sequence: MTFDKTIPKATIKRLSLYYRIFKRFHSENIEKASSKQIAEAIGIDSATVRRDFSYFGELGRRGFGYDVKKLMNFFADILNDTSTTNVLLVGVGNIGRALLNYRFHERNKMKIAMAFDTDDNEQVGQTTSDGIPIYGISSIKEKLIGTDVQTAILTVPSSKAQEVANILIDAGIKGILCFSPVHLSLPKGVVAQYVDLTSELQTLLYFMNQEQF
Nature of the series: EMSA. Conditions: 20 mM Tris pH 8.0, 1 mM EDTA, 75 mM KCl, 2 mM DTT, 10% glycerol, 10 min at room temperature (+15 min after NAD+/NADH); 5% native PAGE.

Series [2] has as its target T2, rRex (UniProt Q8DU91 1-213).
T2 sequence: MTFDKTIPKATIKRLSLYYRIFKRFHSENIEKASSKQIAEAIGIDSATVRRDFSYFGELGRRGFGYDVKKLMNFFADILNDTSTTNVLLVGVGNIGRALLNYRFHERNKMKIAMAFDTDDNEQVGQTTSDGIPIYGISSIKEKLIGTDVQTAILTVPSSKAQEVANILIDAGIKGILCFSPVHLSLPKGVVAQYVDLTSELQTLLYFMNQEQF
Nature of the series: competition; unlabeled competitor against biotinylated adhE1, dose-dependent; 20 mM Tris pH 8.0, 1 mM EDTA, 75 mM KCl, 2 mM DTT, 10% glycerol, 10 min at room temperature (+15 min after NAD+/NADH); 5% native PAGE. The settings on record: protein: recombinant; tags: N-terminal His (pQE30); blunt.

Series [3] addresses T2, rRex. The experiment in a line: EMSA; 20 mM Tris pH 8.0, 1 mM EDTA, 75 mM KCl, 2 mM DTT, 10% glycerol, 10 min at room temperature (+15 min after NAD+/NADH); 5% native PAGE. Conditions: protein: recombinant; tags: N-terminal His (pQE30); blunt.

Turning to “ATGACAGTTCCTCGCATTTTTAATTTATGTTATAATTATAAGTGAAAAACATCACATTTGAAAAGCCTTACAAATATCTTAAAAAATGACTTTTTATGACTTTTAGATGGGAGGTTTGCTTAGT (double strand) [frdC promoter]”, the binding result in series [1] is given as “binds”. Turning to “ACAAGCCCATACTGAGTTTGGACATTAAAGCTCAGCAGGGCTATGATTATGATGTCATTATCATCGGCGGCGGTGTTTCAGGTGTGACTCTAGCC (double strand) [gshR promoter]”, the binding result in series [1] is “binds”.

B1: adhE1 cold oligo (dsDNA)
DNA 1: TTTTGTGAAAAGGGTTACAATG
DNA 2: CATTGTAACCCTTTTCACAAAA
As for B1, in the series with rRex [2], the binding result was “binds”.

B2: adhE Rex-box oligo 148Fw/148Rv (dsDNA)
DNA 1: ATTTTTTTGTGAAAAGGGTTACAATGACAAG
DNA 2: CTTGTCATTGTAACCCTTTTCACAAAAAAAT
Turning to B2, the binding result with rRex [3] is “binds”.

B3: mutated adhE Rex-box oligo m148Fw/m148Rv (dsDNA)
DNA 1: ATTTTTAACAGTAAAGGGTTACAATGACAAG
DNA 2: CTTGTCATTGTAACCCTTTACTGTTAAAAAT
In the case of B3, the binding result with rRex [3] is listed as “no binding”.
